Experimental data published in US20250320312A1 (OXITOPE PHARMA B V, published 2025).

T1: Peptide 8: Biotin-AEAAAKEAAAKEAAAKEAAAKAAA-Tyr-acid (N-terminal biotin; C-terminal acid; no PC)
T1 construct: control peptide without PC
T1 peptide: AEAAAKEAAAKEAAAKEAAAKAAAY

T2: Peptide 4: Biotin-AGGGGSGGGGSGGGGSAAA-Tyr-acid (N-terminal biotin; C-terminal acid; no PC)
T2 construct: control peptide without PC
T2 peptide: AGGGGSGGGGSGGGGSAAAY

B1: PcOxP_DB01_H06 (scFv, V domains shown)
VH: EVQLLESGGGLVQPGGSLRLSCAASGFTFSDFYMEWVRQAPGKGLEWVAASRNKGNSYTTAYADSVKGRFTISRDNSKNTLYLQMNSLRAEDTAVYYCARDYYGSSYWYFDVWGQGTLVTVSS
VL: DIVMTQSPDSLAVSLGERATINCTASESLYSSKHKVHYLAWYQQKPGQPPKLLIYGASNRYDGVPDRFSGSGSGTDFTLTISSLQAEDVAVYYCANFYSYPLTFGGGTKVEIK
notes: scFv in periplasmic extract
B2: PcOxP_DB02_C04 (scFv, V domains shown)
VH: EVQLLESGGGLVQPGGSLRLSCAASGQTFSDFYMEWVRQAPGKGLEWVAASRNKANGYTTEYTDSVKGRFTISRDNSKNTLYLQMNSLRAEDTAVYYCARDYYGSSYWYFDVWGQGTLVTVSS
VL: DIVMTQSPDSLAVSLGERATINCTASESLYSSKHKVHYLAWYQQKPGQPPKLLIYGANNRYIGVPDRFSGSGSGTDFTLTISSLQAEDVAVYYCAQFYSYPLTFGGGTKVEIK
notes: scFv in periplasmic extract
B3: PcOxP_DB02_A04 (scFv, V domains shown)
VH: EVQLLESGGGLVQPGGSLRLSCAASGDTFSDFYMEWVRQAPGKGLEWVAASRNKWNDYTTEYADSVKGRFTISRDNSKNTLYLQMNSLRAEDTAVYYCARDYYGSSYWYFDVWGQGTLVTVSS
VL: DIVMTQSPDSLAVSLGERATINCTASESLYSSKHKVHYLAWYQQKPGQPPKLLIYGASNRYIGVPDRFSGSGSGTDFTLTISSLQAEDVAVYYCAQFYSYPLTFGGGTKVEIK
notes: scFv in periplasmic extract
B4: PcOxP_DB02_B04 (scFv, V domains shown)
VH: EVQLLESGGGLVQPGGSLRLSCAASGFTFSDYYMEWVRQAPGKGLEWVAASRNKWNDYTTEYADSVKGRFTISRDNSKNTLYLQMNSLRAEDTAVYYCARDYYGSSYWYFDVWGQGTLVTVSS
VL: DIVMTQSPDSLAVSLGERATINCTASESLYSSKHKVHYLAWYQQKPGQPPKLLIYGASNRYIGVPDRFSGSGSGTDFTLTISSLQAEDVAVYYCAQFYSYPLTFGGGTKVEIK
notes: scFv in periplasmic extract
B5: PcOxP_DB02_A05 (scFv, V domains shown)
VH: EVQLLESGGGLVQPGGSLRLSCAASGFTGSDFYMEWVRQAPGKGLEWVAASRNKWNDYTTEYADSVKGRFTISRDNSKNTLYLQMNSLRAEDTAVYYCARDYYGSSYWYFDVWGQGTLVTVSS
VL: DIVMTQSPDSLAVSLGERATINCTASESLYSSKHKVHYLAWYQQKPGQPPKLLIYGAGNRYIGVPDRFSGSGSGTDFTLTISSLQAEDVAVYYCAQFYSYPLTFGGGTKVEIK
notes: scFv in periplasmic extract
B6: PcOxP_DB02_C03 (scFv, V domains shown)
VH: EVQLLESGGGLVQPGGSLRLSCAASGFTFSDYYMEWVRQAPGKGLEWVAASRWKANDYTTEYADSVKGRFTISRDNSKNTLYLQMNSLRAEDTAVYYCARDYYGSSYWYFDVWGQGTLVTVSS
VL: DIVMTQSPDSLAVSLGERATINCTASESLYSSKHKVHYLAWYQQKPGQPPKLLIYGASNRYIGVPDRFSGSGSGTDFTLTISSLQAEDVAVYYCAQFYVYPLTFGGGTKVEIK
notes: scFv in periplasmic extract
B7: PcOxP_DB02_B07 (scFv, V domains shown)
VH: EVQLLESGGGLVQPGGSLRLSCAASGFTFSDQYMEWVRQAPGKGLEWVAASRNNANDYTTEYADSVKGRFTISRDNSKNTLYLQMNSLRAEDTAVYYCARDYYGSSYWYFDVWGQGTLVTVSS
VL: DIVMTQSPDSLAVSLGERATINCTASESLYSSKHKVHYLAWYQQKPGQPPKLLIYGASNRQIGVPDRFSGSGSGTDFTLTISSLQAEDVAVYYCAQFYHYPLTFGGGTKVEIK
notes: scFv in periplasmic extract

Key:
Test in all cases: scFv ELISA
[1] = molecular target: Peptide 5: Biotin-…-[Tyr(PC)]-acid
[2] = molecular target: BSA (UniProt P02769)
[3] = molecular target: Peptide 1: Biotin-…-[Tyr(PC)]-acid
[4] = molecular target: T1, Peptide 8: …
Method in brief: (§1)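 Bound scFv was read as OD450 after HRP–anti-V5 detection, TMB development and HCl stop. PPE with BSA was incubated 1 h at RT on BSA-blocked wells coated overnight at 4° C. with peptide, or on streptavidin wells loaded 1 h with biotinylated PC-peptides at 1 μg/mL.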

[5] = molecular target: T2, Peptide 4: …
Method in brief: as §1

BSA, sequence (P02769 25-607 limits assumed): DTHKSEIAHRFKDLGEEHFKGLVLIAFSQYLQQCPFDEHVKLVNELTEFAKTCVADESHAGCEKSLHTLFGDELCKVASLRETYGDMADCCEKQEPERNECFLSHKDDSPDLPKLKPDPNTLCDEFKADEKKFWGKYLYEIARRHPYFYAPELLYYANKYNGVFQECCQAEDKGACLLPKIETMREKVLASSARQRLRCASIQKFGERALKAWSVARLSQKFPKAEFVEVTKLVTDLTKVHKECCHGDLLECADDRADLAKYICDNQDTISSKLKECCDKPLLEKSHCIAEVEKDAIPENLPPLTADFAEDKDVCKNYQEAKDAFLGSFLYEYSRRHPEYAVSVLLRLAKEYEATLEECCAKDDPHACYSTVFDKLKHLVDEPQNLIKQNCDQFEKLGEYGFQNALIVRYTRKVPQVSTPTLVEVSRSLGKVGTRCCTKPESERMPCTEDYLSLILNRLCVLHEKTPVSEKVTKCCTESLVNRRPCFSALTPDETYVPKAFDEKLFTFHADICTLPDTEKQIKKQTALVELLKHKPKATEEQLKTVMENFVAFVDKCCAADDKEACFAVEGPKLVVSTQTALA

Row | Binder | OD450 [1] [OD450] | OD450 [2] [OD450] | OD450 [3] [OD450] | OD450 [4] [OD450] | OD450 [5] [OD450]
1 | B1 | 1.79 | 0.11 | 0.96 | 0.07 | 0.05
2 | B2 | 0.75 | 0.08 | 0.37 | 0.05 | 0.05
3 | B3 | 0.82 | 0.09 | 0.33 | 0.04 | 0.04
4 | B4 | 1.32 | 0.08 | 0.75 | 0.04 | 0.05
5 | B5 | 1.24 | 0.07 | 0.99 | 0.04 | 0.05
6 | B6 | 0.61 | 0.1 | 0.54 | 0.05 | 0.05
7 | B7 | 0.77 | 0.06 | 0.4 | 0.04 | 0.04
